According to publication doi:10.1101/2023.10.24.563787 (bioRxiv, 2023):

Target: the molecule itself
Assay: cryo-EM structure

B1: 3xFLAG-Lip1, small regulatory subunit of the yeast ceramide synthase (CerS) complex (natural protein, S. cerevisiae)
chain: PKIFNLFRVCFISLLLIAAVEYFKYGTRINYEWFHCTPIKEPQSGSVIKLWARGGPSCDKRGEYKTIVKRITRDYEPNDEHLSFCIIENDNVPPVHYPIHEDKGEPGYVAYVGYDTDSELVQELCADSTIYHM
  stoichiometry N: 2
